{
  "source": "the supplement of paper PMC9112550",
  "about": "“Optimization of the antimicrobial peptide Bac7 by deep mutational scanning” (BMC Biology, 2022);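 also: peptides expressed intracellularly from a pBAD plasmid library in pooled LB shake-flask culture, induced with 0.3% L-arabinose, DNA abundance read by NGS, three biological replicates, DESeq2 with apeglm shrinkage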",
  "data": [
    {"test_system": "Escherichia coli TOP10", "assay": "shrunken log2 fold change of peptide-encoding DNA abundance (4.5 h post-induction vs induction); higher = less antimicrobial activity (less host growth inhibition)", "settings": "time post-induction: 4.5 h; library: site-saturation at positions 5, 18, 19, 20", "values": [
      {"sequence": "RRIRFRPPRLPRPRPRPHRSPRP", "shrunken log2 fold change": -0.222},
      {"sequence": "RRIRIRPPRLPRPRPRPSWHPRP", "shrunken log2 fold change": -0.707},
      {"sequence": "RRIRMRPPRLPRPRPRPMQLPRP", "shrunken log2 fold change": 0.33},
      {"sequence": "RRIRCRPPRLPRPRPRPPFMPRP", "shrunken log2 fold change": 0.114},
      {"sequence": "RRIRLRPPRLPRPRPRPKLGPRP", "shrunken log2 fold change": -0.123},
      {"sequence": "RRIRNRPPRLPRPRPRPLTVPRP", "shrunken log2 fold change": 0.0619},
      {"sequence": "RRIRLRPPRLPRPRPRPTDSPRP", "shrunken log2 fold change": 2.57},
      {"sequence": "RRIRHRPPRLPRPRPRPSFMPRP", "shrunken log2 fold change": -0.699},
      {"sequence": "RRIRHRPPRLPRPRPRPDMIPRP", "shrunken log2 fold change": -0.0018},
      {"sequence": "RRIRMRPPRLPRPRPRPHYHPRP", "shrunken log2 fold change": -0.493},
      {"sequence": "RRIRERPPRLPRPRPRPFKCPRP", "shrunken log2 fold change": -0.457},
      {"sequence": "RRIRARPPRLPRPRPRPVKVPRP", "shrunken log2 fold change": 0.0388},
      {"sequence": "RRIRQRPPRLPRPRPRPNTQPRP", "shrunken log2 fold change": -0.621},
      {"sequence": "RRIRMRPPRLPRPRPRPLFPPRP", "shrunken log2 fold change": 0.152},
      {"sequence": "RRIRSRPPRLPRPRPRPNVGPRP", "shrunken log2 fold change": -0.0139},
      {"sequence": "RRIRYRPPRLPRPRPRPDGKPRP", "shrunken log2 fold change": -0.01},
      {"sequence": "RRIRCRPPRLPRPRPRPFTEPRP", "shrunken log2 fold change": -0.28},
      {"sequence": "RRIRSRPPRLPRPRPRPVVEPRP", "shrunken log2 fold change": 0.13},
      {"sequence": "RRIRGRPPRLPRPRPRPTTYPRP", "shrunken log2 fold change": 0.214},
      {"sequence": "RRIRIRPPRLPRPRPRPELYPRP", "shrunken log2 fold change": -0.0779},
      {"sequence": "RRIRERPPRLPRPRPRPEEEPRP", "shrunken log2 fold change": 0.102},
      {"sequence": "RRIRKRPPRLPRPRPRPDTDPRP", "shrunken log2 fold change": 0.198},
      {"sequence": "RRIRNRPPRLPRPRPRPCRMPRP", "shrunken log2 fold change": -0.195},
      {"sequence": "RRIRYRPPRLPRPRPRPMDDPRP", "shrunken log2 fold change": -0.0837},
      {"sequence": "RRIRWRPPRLPRPRPRPIPGPRP", "shrunken log2 fold change": 0.0313},
      {"sequence": "RRIRIRPPRLPRPRPRPSSCPRP", "shrunken log2 fold change": -0.17},
      {"sequence": "RRIRLRPPRLPRPRPRPCHQPRP", "shrunken log2 fold change": -0.234},
      {"sequence": "RRIRCRPPRLPRPRPRPKCRPRP", "shrunken log2 fold change": -0.281},
      {"sequence": "RRIRPRPPRLPRPRPRPTAHPRP", "shrunken log2 fold change": 0.231},
      {"sequence": "RRIRLRPPRLPRPRPRPAKKPRP", "shrunken log2 fold change": 0.0858},
      {"sequence": "RRIRARPPRLPRPRPRPSEKPRP", "shrunken log2 fold change": -0.312},
      {"sequence": "RRIRDRPPRLPRPRPRPFSDPRP", "shrunken log2 fold change": -0.016},
      {"sequence": "RRIRYRPPRLPRPRPRPMTTPRP", "shrunken log2 fold change": -0.2},
      {"sequence": "RRIRMRPPRLPRPRPRPYMDPRP", "shrunken log2 fold change": 0.000784},
      {"sequence": "RRIRKRPPRLPRPRPRPPTAPRP", "shrunken log2 fold change": 0.742},
      {"sequence": "RRIRLRPPRLPRPRPRPYCQPRP", "shrunken log2 fold change": -0.797},
      {"sequence": "RRIRNRPPRLPRPRPRPQMWPRP", "shrunken log2 fold change": -0.234},
      {"sequence": "RRIRHRPPRLPRPRPRPNIAPRP", "shrunken log2 fold change": -0.112},
      {"sequence": "RRIRTRPPRLPRPRPRPGKFPRP", "shrunken log2 fold change": -0.0892},
      {"sequence": "RRIRTRPPRLPRPRPRPYHFPRP", "shrunken log2 fold change": -0.28},
      {"sequence": "RRIRIRPPRLPRPRPRPVQQPRP", "shrunken log2 fold change": -0.168},
      {"sequence": "RRIRYRPPRLPRPRPRPMCRPRP", "shrunken log2 fold change": -0.181},
      {"sequence": "RRIRKRPPRLPRPRPRPVCFPRP", "shrunken log2 fold change": 0.54},
      {"sequence": "RRIRFRPPRLPRPRPRPSYQPRP", "shrunken log2 fold change": -0.451},
      {"sequence": "RRIRLRPPRLPRPRPRPETPPRP", "shrunken log2 fold change": 0.178},
      {"sequence": "RRIRYRPPRLPRPRPRPCAYPRP", "shrunken log2 fold change": -0.0775},
      {"sequence": "RRIRFRPPRLPRPRPRPCQEPRP", "shrunken log2 fold change": 0.176},
      {"sequence": "RRIRMRPPRLPRPRPRPKIYPRP", "shrunken log2 fold change": -0.107},
      {"sequence": "RRIRSRPPRLPRPRPRPSEQPRP", "shrunken log2 fold change": -0.0884},
      {"sequence": "RRIRKRPPRLPRPRPRPEFCPRP", "shrunken log2 fold change": 0.771},
      {"sequence": "RRIRQRPPRLPRPRPRPHTFPRP", "shrunken log2 fold change": -0.174},
      {"sequence": "RRIRARPPRLPRPRPRPTCAPRP", "shrunken log2 fold change": 0.863},
      {"sequence": "RRIRRRPPRLPRPRPRPASNPRP", "shrunken log2 fold change": 0.472},
      {"sequence": "RRIRTRPPRLPRPRPRPFTMPRP", "shrunken log2 fold change": -0.348},
      {"sequence": "RRIRSRPPRLPRPRPRPRMMPRP", "shrunken log2 fold change": 0.0975},
      {"sequence": "RRIRARPPRLPRPRPRPFKDPRP", "shrunken log2 fold change": -0.0208},
      {"sequence": "RRIRPRPPRLPRPRPRPFWNPRP", "shrunken log2 fold change": -0.478},
      {"sequence": "RRIRPRPPRLPRPRPRPDWFPRP", "shrunken log2 fold change": 0.0805},
      {"sequence": "RRIRTRPPRLPRPRPRPYQAPRP", "shrunken log2 fold change": -0.206},
      {"sequence": "RRIRQRPPRLPRPRPRPGMAPRP", "shrunken log2 fold change": 0.0366},
      {"sequence": "RRIRKRPPRLPRPRPRPGRWPRP", "shrunken log2 fold change": 0.622},
      {"sequence": "RRIRARPPRLPRPRPRPACMPRP", "shrunken log2 fold change": 0.313},
      {"sequence": "RRIRMRPPRLPRPRPRPMKTPRP", "shrunken log2 fold change": -0.00191},
      {"sequence": "RRIRIRPPRLPRPRPRPMLQPRP", "shrunken log2 fold change": -0.452},
      {"sequence": "RRIRYRPPRLPRPRPRPTLLPRP", "shrunken log2 fold change": -0.703},
      {"sequence": "RRIRNRPPRLPRPRPRPWCGPRP", "shrunken log2 fold change": -0.263},
      {"sequence": "RRIRRRPPRLPRPRPRPRYIPRP", "shrunken log2 fold change": -0.12},
      {"sequence": "RRIRTRPPRLPRPRPRPLRDPRP", "shrunken log2 fold change": 0.282},
      {"sequence": "RRIRQRPPRLPRPRPRPIQQPRP", "shrunken log2 fold change": -0.039},
      {"sequence": "RRIRPRPPRLPRPRPRPAGAPRP", "shrunken log2 fold change": 0.309},
      {"sequence": "RRIRHRPPRLPRPRPRPAPHPRP", "shrunken log2 fold change": 0.223},
      {"sequence": "RRIRPRPPRLPRPRPRPQIGPRP", "shrunken log2 fold change": 0.128},
      {"sequence": "RRIRYRPPRLPRPRPRPMTWPRP", "shrunken log2 fold change": -0.31},
      {"sequence": "RRIRQRPPRLPRPRPRPMVKPRP", "shrunken log2 fold change": 0.0691},
      {"sequence": "RRIRFRPPRLPRPRPRPSHPPRP", "shrunken log2 fold change": -0.19}
    ]}
  ]
}
